B2: ETR1^306–738, purified recombinant (domain or fragment, A. thaliana, UniProt P49333 306-738, looked up)
chain: ALSHAAILEESMRARDLLMEQNVALDLARREAETAIRARNDFLAVMNHEMRTPMHAIIALSSLLQETELTPEQRLMVETILKSSNLLATLMNDVLDLSRLEDGSLQLELGTFNLHTLFREVLNLIKPIAVVKKLPITLNLAPDLPEFVVGDEKRLMQIILNIVGNAVKFSKQGSISVTALVTKSDTRAADFFVVPTGSHFYLRVKVKDSGAGINPQDIPKIFTKFAQTQSLATRSSGGSGLGLAISKRFVNLMEGNIWIESDGLGKGCTAIFDVKLGISERSNESKQSGIPKVPAIPRHSNFTGLKVLVMDENGVSRMVTKGLLVHLGCEVTTVSSNEECLRVVSHEHKVVFMDVCMPGVENYQIALRIHEKFTKQRHQRPLLVALSGNTDKSTKEKCMSFGLDGVLLKPVSLDNIRDVLSDLLEPRVLYEGM
notes: also called extra-membranous part of ETR1; soluble extra-membranous part of the receptor
B3: ETR1^1–157, purified recombinant (domain or fragment, A. thaliana, UniProt P49333 1-157, looked up)
chain: MEVCNCIEPQWPADELLMKYQYISDFFIAIAYFSIPLELIYFVKKSAVFPYRWVLVQFGAFIVLCGATHLINLWTFTTHSRTVALVMTTAKVLTAVVSCATALMLVHIIPDLLSVKTRELFLKNKAAELDREMGLIRTQEETGRHVRMLTHEIRSTL
notes: In detergent (FosCholine-16); also called purified ETR1
B4: NterRAN1 (amino acids 1–298), purified recombinant (domain or fragment, A. thaliana, UniProt Q9S7J8 1-298, looked up)
chain: MAPSRRDLQLTPVTGGSSSQISDMEEVGLLDSYHNEANADDILTKIEEGRDVSGLRKIQVGVTGMTCAACSNSVEAALMNVNGVFKASVALLQNRADVVFDPNLVKEEDIKEAIEDAGFEAEILAEEQTQATLVGQFTIGGMTCAACVNSVEGILRDLPGVKRAVVALSTSLGEVEYDPNVINKDDIVNAIEDAGFEGSLVQSNQQDKLVLRVDGILNELDAQVLEGILTRLNGVRQFRLDRISGELEVVFDPEVVSSRSLVDGIEEDGFGKFKLRVMSPYERLSSKDTGEASNMFRR
modifications: AlexaFluor488-NHS label
notes: RAN1 (HMA7), Arabidopsis thaliana, cytosolic N-terminal region, amino acids 1-298; source: E. coli BL21 (DE3) or C43 (DE3), pETEV16b, purified (HisTrap, TEV, Superdex200)

Assay [1] deals with T1, RAN1, full-length, purified recombinant (A. thaliana, UniProt Q9S7J8 1-1001, AlexaFluor488-NHS label).
T1 construct: P1B-type copper ATPase RAN1 (HMA7), Arabidopsis thaliana, full-length; also called full-length RAN1; HMA7; source: E. coli BL21 (DE3) or C43 (DE3), pETEV16b, solubilised with DDM, purified (HisTrap, TEV, Superdex200)
T1 sequence (looked up): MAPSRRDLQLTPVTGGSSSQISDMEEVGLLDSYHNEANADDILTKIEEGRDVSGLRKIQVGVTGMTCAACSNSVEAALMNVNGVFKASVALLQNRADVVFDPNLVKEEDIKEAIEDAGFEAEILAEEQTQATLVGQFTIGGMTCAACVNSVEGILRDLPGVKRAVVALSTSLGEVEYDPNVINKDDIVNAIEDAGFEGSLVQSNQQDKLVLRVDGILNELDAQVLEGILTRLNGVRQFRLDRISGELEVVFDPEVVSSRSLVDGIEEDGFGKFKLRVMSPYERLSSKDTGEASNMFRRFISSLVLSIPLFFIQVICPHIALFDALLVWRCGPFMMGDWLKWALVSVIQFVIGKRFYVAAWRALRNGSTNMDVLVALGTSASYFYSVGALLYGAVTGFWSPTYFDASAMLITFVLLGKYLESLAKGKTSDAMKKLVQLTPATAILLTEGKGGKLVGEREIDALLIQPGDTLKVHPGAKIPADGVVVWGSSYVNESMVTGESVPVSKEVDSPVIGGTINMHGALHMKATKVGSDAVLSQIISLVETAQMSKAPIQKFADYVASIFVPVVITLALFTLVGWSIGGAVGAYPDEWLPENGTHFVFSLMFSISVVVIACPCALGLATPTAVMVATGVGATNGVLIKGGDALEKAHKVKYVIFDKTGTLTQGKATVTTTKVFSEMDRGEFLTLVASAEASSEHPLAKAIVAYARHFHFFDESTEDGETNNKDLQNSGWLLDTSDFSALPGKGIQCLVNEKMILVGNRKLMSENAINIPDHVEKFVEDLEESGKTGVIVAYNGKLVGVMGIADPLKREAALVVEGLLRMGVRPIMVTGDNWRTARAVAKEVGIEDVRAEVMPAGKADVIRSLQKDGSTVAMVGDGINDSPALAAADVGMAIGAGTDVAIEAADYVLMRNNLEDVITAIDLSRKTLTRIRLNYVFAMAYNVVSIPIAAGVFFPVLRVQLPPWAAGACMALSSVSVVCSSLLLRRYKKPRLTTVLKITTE
Put plainly: MST; AlexaFluor488-labelled RAN1 or CterRAN1 (15 nM, 50 mM HEPES, 300 mM NaCl, 0.1% DDM, pH 7.5) or NterRAN1 (50 nM, same buffer without DDM, 0.05% Tween20); ATX1, CCH or CCHΔ titrated 30 µM to 0.9 nM; triplicates; apparent dissociation constants. As to conditions: both partners purified.

Assay [2] addresses B3. The assay is described as follows: MST; AlexaFluor488-labelled ATX1 (75 nM), CCH (100 nM) or CCHΔ (50 nM) in 50 mM HEPES, 300 mM NaCl, pH 7.5, 0.015% FosCholine-16, 0.05% Tween20; ETR1^1–157 titrated 7.5 µM to 0.2 nM; triplicates; apparent dissociation constants. Particulars: both partners purified.
Assay [3] deals with T2, CterRAN1 (amino acids 299–1001), purified recombinant (A. thaliana, UniProt Q9S7J8 299-1001, AlexaFluor488-NHS label).
T2 construct: RAN1 (HMA7), Arabidopsis thaliana, amino acids 299-1001 (transmembrane copper transport site); also called CterRAN1 mutant; source: E. coli BL21 (DE3) or C43 (DE3), pETEV16b, solubilised with DDM, purified (HisTrap, TEV, Superdex200)
T2 sequence (looked up): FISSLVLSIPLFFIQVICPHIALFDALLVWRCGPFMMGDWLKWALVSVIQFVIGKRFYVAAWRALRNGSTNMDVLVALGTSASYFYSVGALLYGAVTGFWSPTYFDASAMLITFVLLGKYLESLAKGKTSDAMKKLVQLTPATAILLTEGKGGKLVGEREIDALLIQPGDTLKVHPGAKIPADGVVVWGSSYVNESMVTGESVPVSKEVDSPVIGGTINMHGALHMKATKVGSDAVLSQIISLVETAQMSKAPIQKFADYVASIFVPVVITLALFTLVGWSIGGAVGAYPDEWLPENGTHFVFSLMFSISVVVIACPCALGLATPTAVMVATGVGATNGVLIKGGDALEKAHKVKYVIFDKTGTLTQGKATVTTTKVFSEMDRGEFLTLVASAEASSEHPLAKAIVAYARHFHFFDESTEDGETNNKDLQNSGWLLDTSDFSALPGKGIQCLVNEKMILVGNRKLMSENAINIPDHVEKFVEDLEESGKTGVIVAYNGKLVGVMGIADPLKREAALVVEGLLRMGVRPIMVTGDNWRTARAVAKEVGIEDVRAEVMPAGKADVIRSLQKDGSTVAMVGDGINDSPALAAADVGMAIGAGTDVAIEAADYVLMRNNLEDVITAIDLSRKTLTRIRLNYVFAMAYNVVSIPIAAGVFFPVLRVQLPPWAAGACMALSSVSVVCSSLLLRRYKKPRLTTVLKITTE
Put plainly: MST; AlexaFluor488-labelled RAN1, CterRAN1, NterRAN1, ATX1, CCH or CCHΔ (50 nM) in buffer D (50 mM Tris, 250 mM NaCl, 0.015% FosCholine16, 2.5 mM DTT, 20% glycerol, pH 8.5); ETR1^306–738 titrated 37 µM to 1.1 nM; triplicates. Particulars: both partners purified.

For assay [4], the target named is T1, RAN1, full-length, purified recombinant. Described as above. Particulars: both partners purified.
For assay [5], the target named is CterRAN1 (amino acids 299–1001), purified recombinant (A. thaliana) (UniProt Q9S7J8). The assay is described as follows: MST; AlexaFluor488-labelled RAN1 or CterRAN1 (20 nM, 50 mM HEPES, 300 mM NaCl, 0.1% DDM, pH 7.5) or NterRAN1 (40 nM, 0.05% Tween20); ETR1^1–157 titrated 10 µM to 0.3 nM in buffer with 0.015% FosCholine-16; triplicates.
The target in assay [6] is T1, RAN1, full-length, purified recombinant. Described as above. Particulars: both partners purified.
The target of assay [7] is B4. The description is as above. As to conditions: both partners purified.
Assay [8] addresses B2. The assay is described as follows: MST; AlexaFluor488-labelled RAN1, CterRAN1, NterRAN1, ATX1, CCH or CCHΔ (50 nM) in buffer D (50 mM Tris, 250 mM NaCl, 0.015% FosCholine16, 2.5 mM DTT, 20% glycerol, pH 8.5); ETR1^306–738 titrated 37 µM to 1.1 nM; triplicates. Particulars: both partners purified.

B1: CCH, full-length, purified recombinant (natural protein, A. thaliana, UniProt O82089 1-121, looked up)
chain: MAQTVVLKVGMSCQGCVGAVNRVLGKMEGVESFDIDIKEQKVTVKGNVEPEAVFQTVSKTGKKTSYWPVEAEAEPKAEADPKVETVTETKTEAETKTEAKVDAKADVEPKAAEAETKPSQV
modifications: AlexaFluor488-NHS label where it was the labelled partner (with ETR1^1–157 and ETR1^306–738); unlabelled where titrated
notes: soluble copper chaperone CCH, Arabidopsis thaliana, full-length; Preloaded with Cu(I) in the copper transfer assay; also called CCH wildtype; full-length CCH; source: E. coli BL21 (DE3) or C43 (DE3), pETEV16b, purified (HisTrap, TEV, Superdex200)
Regarding B1, the figures for the Kd in assay [1] and in assay [2] were 55 ± 13 nM and 526 ± 101 nM, respectively.
B2: the Kd in assay [3] was 211 ± 38 nM; in assay [4], 71 ± 17 nM.
Take B3: the Kd worked out at 2610 nM in assay [5], 33 ± 8 nM in assay [6] and 205 ± 35 nM in assay [7].
As to B4, the Kd in assay [8] turned out to be 3480 ± 315 nM.

B5: CCHΔ, deletion mutant of CCH lacking the C-terminal extension, purified recombinant (domain or fragment)
chain: MAQTVVLKVGMSCQGCVGAVNRVLGKMEGVESFDIDIKEQKVTVKGNVEPEAVFQTVSKTGKKTSYWPVEAEAEPK
modifications: AlexaFluor488-NHS label where it was the labelled partner (with ETR1^1–157 and ETR1^306–738); unlabelled where titrated
For B5, the Kd in assay [1] was 77 ± 24 nM; in assay [2], 376 ± 93 nM.

B6: ATX1, purified recombinant (natural protein, A. thaliana, UniProt Q94BT9 1-76, looked up)
chain: MSQTVVLRVAMTCEGCVGAVKRVLGKMEGVESFDVDIKEQKVTVKGNVQPDAVLQTVTKTGKKTAFWEAEGETAKA
modifications: AlexaFluor488-NHS label where it was the labelled partner (with ETR1^1–157 and ETR1^306–738); unlabelled where titrated
notes: soluble copper chaperone ATX1, Arabidopsis thaliana; Preloaded with Cu(I) in the copper transfer assay; also called Cu(I)-ATX1; source: E. coli BL21 (DE3) or C43 (DE3), pETEV16b, purified (HisTrap, TEV, Superdex200)
With B6, the Kd was 41 ± 11 nM in assay [1] and 313 ± 74 nM in assay [2].
